Assay results as given in US20250163161A1 (TECHNISCHE UNIVERSIT T DARMSTADT, published 2025).

T1: IL-6R on cells (THP-1, A549) (UniProt P08887 20-468, limits assumed)
T1 construct: whole, on cells; also called THP-1 (IL-6R+/PD-L1+)
T1 sequence (looked up): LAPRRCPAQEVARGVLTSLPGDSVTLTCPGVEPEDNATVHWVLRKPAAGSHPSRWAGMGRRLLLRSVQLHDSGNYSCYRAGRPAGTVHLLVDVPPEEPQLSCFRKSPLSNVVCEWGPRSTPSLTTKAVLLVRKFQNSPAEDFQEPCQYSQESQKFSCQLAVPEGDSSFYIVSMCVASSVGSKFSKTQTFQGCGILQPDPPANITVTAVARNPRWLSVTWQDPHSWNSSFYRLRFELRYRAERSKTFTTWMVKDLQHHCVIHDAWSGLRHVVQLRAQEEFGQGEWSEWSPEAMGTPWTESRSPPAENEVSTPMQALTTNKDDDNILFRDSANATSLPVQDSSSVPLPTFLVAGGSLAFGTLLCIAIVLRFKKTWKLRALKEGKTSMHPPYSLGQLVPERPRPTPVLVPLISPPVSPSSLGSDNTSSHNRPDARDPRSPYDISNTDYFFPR

T2: soluble IL-6R (sIL-6R-TS) (UniProt P08887 20-358)
T2 construct: not shown: TwinStrepII tag (TS)
T2 sequence (looked up): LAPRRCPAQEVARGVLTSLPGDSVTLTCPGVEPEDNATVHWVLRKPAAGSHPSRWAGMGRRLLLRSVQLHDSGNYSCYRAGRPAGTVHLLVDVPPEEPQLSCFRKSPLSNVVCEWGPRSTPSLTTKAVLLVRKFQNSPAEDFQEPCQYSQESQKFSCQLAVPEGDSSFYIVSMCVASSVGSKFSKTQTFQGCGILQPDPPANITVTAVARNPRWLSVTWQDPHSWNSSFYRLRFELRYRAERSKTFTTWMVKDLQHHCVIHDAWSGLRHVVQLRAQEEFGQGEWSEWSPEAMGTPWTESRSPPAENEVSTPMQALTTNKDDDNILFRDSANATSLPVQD


Legend:
[1] = molecular target: T3, EGFR and PD-L1 on EGFR/PD-L1 double positive A431 cells (UniProt P00533 25-1210; Q9NZQ7 19-290); test: flow cytometry on A431 cells
T3 construct: whole, on cells; Two separate cell-surface proteins, not a complex; also called A431 (EGFR+/PD-L1+)

[2] = molecular target: T4, His6-EGFR-TS (soluble, monomeric EGFR) (UniProt P00533 25-645); test: BLI, antibody on AHC biosensors
T4 construct: not shown: TwinStrepII tag (TS)

[3] = molecular target: T5, His6-PD-L1-TS (soluble, monomeric PD-L1) (UniProt Q9NZQ7 19-238); test: BLI, antibody on AHC biosensors
T5 construct: not shown: TwinStrepII tag (TS)
T5 sequence (Q9NZQ7 other isoform, or with tags, fused parts or gaps): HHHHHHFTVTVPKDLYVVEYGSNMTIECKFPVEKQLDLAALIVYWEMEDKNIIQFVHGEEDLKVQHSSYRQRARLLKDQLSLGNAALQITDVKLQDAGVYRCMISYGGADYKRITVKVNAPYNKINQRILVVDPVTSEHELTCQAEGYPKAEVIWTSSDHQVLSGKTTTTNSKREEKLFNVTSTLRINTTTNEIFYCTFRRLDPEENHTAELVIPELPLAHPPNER

[4] = molecular target: T1, IL-6R on cells (THP-1, A549); test: flow cytometry on THP-1 cells; legend: - represents no significant binding
[5] = molecular target: T2, soluble IL-6R (sIL-6R-TS); test: BLI simultaneous binding; antibody on AHC biosensors; 200 nM IL-6R, then 500 nM EGFR, then 500 nM PD-L1, 300 s each
[6] = molecular target: T3, EGFR and PD-L1 on EGFR/PD-L1 double …; test: flow cytometry; Jurkat cells with antibody mixed with Calcein AM-stained A431 cells; anti-human Fc PE detection; Q2 = PE-positive Calcein-stained A431 events; Neg Ctrl Q2 0.13
[7] = molecular target: T6, epidermal growth factor receptor (EGFR), soluble, as used in BLI (UniProt P00533 25-645); test: BLI
T6 construct: extracellular domain; also called EGFR-ECD

[8] = molecular target: T7, programmed death-ligand 1 (PD-L1), soluble, as used in BLI (UniProt Q9NZQ7 19-238); test: BLI
T7 construct: extracellular domain; also called PD-L1-ECD
T7 sequence (Q9NZQ7 19-238): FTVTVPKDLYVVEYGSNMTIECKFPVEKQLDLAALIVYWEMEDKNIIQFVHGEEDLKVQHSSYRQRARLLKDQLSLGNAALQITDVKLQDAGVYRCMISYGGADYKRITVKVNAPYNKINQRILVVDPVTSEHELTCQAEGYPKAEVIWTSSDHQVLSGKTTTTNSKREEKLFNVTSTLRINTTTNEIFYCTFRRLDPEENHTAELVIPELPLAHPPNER

CD16 = molecular target: T8, CD16 (UniProt P08637 17-208); test: BLI
T8 construct: also called Fcγ-receptor IIIa
T8 sequence (P08637 17-208): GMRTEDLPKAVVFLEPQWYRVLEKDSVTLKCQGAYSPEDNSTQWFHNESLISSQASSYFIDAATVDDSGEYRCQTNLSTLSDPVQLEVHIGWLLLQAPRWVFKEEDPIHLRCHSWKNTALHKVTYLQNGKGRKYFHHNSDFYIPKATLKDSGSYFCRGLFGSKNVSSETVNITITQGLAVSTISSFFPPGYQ

[9] = molecular target: T9, CD3 (CD3ε) on cells (Jurkat; TCR/CD3 effector cells) (UniProt P07766 23-207, limits assumed); test: flow cytometry; Jurkat cells with antibody mixed with Calcein AM-stained A431 cells; anti-human Fc PE detection; Q3 = CD3-binding on Jurkats
T9 construct: whole, on cells; that number is the CD3ε entry; also called Jurkat (CD3+)
T9 sequence (P07766 23-207 limits assumed): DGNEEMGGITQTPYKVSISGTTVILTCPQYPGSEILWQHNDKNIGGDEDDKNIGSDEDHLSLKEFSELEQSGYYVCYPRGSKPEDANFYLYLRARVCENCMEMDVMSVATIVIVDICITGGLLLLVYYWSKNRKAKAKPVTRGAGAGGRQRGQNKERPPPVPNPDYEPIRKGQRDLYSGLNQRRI

[10] = molecular target: T2, soluble IL-6R (sIL-6R-TS); test: BLI, antibody on AHC biosensors

On-cell affinity [1]	Kd [2]	Kd [3]	binding result [4]	binding result [5]	Q2 (FITC+/PE+) % of events [6]	Kd [7]	Kd (CD16)	binding result [9]	Kd [10]	Binder	Kd [8]
2.5 nM	173 nM	92.9 nM	no binding	no binding (tested: 200 nM)	14%	–	–	no binding	–	K+H (parental two-in-one antibody in Knob-into-Hole, effector-silenced LALA IgG1 format) (bispecific antibody, V domains shown, HCP-LCE Fabs on IgG1 LALA Knob-into-Hole Fc; also called parental K+H antibody) VH: AVTLDESGGGLQTPGGALSLVCKASGFDFSSYDMAWVRQAPGKGLEWVAGIKSNGPWTNYGAAVKGRATISRDNGQSTVRLQLNNLRAEDTAIYYCAKPGAGYVGWDAAGTIDSWGHGTEVIVSS VL: ALTQPSSVSANLGETVKITCSGGAYSDCGWYQQKSPGSAPVTVIYYNDKRPSDIPSRFSGSTFGSTATLTITGVQAEDEAVYYCGGYDSRTGYVGVFGAGTTLTVLG	–
21.2 nM	172 nM	–	–	–	12.2%	–	–	–	1.8 nM	K(αCD3ε)+H(αIL-6R) TriTECM (bispecific antibody, Fabs from HCP-LCE; effector-silenced IgG1 LALA; also called IgG1(H)-scFv2) heavy 1: not shown heavy 2: AVTLDESGGGLQTPGGALSLVCKASGFDFSSYDMAWVRQAPGKGLEWVAGIKSNGPWTNYGAAVKGRATISRDNGQSTVRLQLNNLRAEDTAIYYCAKPGAGYVGWDAAGTIDSWGHGTEVIVSSASTKGPSVFPLAPSSKSTSGGTAALGCLVKDYFPEPVTVSWNSGALTSGVHTFPAVLQSSGLYSLSSVVTVPSSSLGTQTYICNVNHKPSNTKVDKRVEPKSCDKTHTCPPCPAPEAAGGPSVFLFPPKPKDTLMISRTPEVTCVVVDVSHEDPEVKFNWYVDGVEVHNAKTKPREEQYNSTYRVVSVLTVLHQDWLNGKEYKCKVSNKALPAPIEKTISKAKGQPREPQVYTLPPSREEMTKNQVSLSCAVKGFYPSDIAVEWESNGQPENNYKTTPPVLDSDGSFFLVSKLTVDKSRWQQGNVFSCSVMHEALHNRFTQKSLSLSPGGSHHHHHHGGGGSGGGGSGGGGSSEVQLVESGGGLVQPGRSLRLSCAASRFTFDDYAMHWVRQAPGKGLEWVSGISWNSGRIGYADSVKGRFTISRDNAENSLFLQMNGLRAEDTALYYCAKGRDSFDIWGQGTMVTVSSAGGGGSGGGGSGGGGSSDIQMTQSPSSVSASVGDRVTITCRASQGISSWLAWYQQKPGKAPKLLIYGASSLESGVPSRFSGSGSGTDFTLTISSLQPEDFASYYCQQANSFPYTFGQGTKLEIKR light: ALTQPSSVSANLGETVKITCSGGAYSDCGWYQQKSPGSAPVTVIYYNDKRPSDIPSRFSGSTFGSTATLTITGVQAEDEAVYYCGGYDSRTGYVGVFGAGTTLTVLGQPKANPTVTLFPPSSEELQANKATLVCLISDFYPGAVTVAWKADGSPVKAGVETTKPSKQSNNKYAASSYLSLTPEQWKSHRSYSCQVTHEGSTVEKTVAPTECS	–
–	–	–	–	–	–	331 nM	17 nM	–	–	HC16_outer/ICI2_inner trispecific variant (full-length HC16_outer and ICI2_inner LALA construct) (bispecific antibody, human IgG1, lambda, L234A L235A, Two Fabs on each side, common light chain LCE; also called HC16_outer/ICI2_inner LALA) heavy: not shown light: ALTQPSSVSANLGETVKITCSGGAYSDCGWYQQKSPGSAPVTVIYYNDKRPSDIPSRFSGSTFGSTATLTITGVQAEDEAVYYCGGYDSRTGYVGVFGAGTTLTVLGQPKANPTVTLFPPSSEELQANKATLVCLISDFYPGAVTVAWKADGSPVKAGVETTKPSKQSNNKYAASSYLSLTPEQWKSHRSYSCQVTHEGSTVEKTVAPTECS	68 nM

Further lines, the binder ahead of its results:

Binder	On-cell affinity [1]	Kd [2]	Kd [3]	binding result [4]	binding result [5]	Q2 (FITC+/PE+) % of events [6]	Kd [7]	Kd (CD16)	binding result [9]	Kd [10]	Kd [8]
(αCD3ε)K+H (bispecific antibody, Control variant with anti-CD3ε scFv fused to the N-terminus of the VH of the knob chain; not shown: CH1 and Knob-Fc (IgG1 LALA) with Twin-StrepII tag; CH1 and Hole-Fc (IgG1 LALA) with His6 tag) heavy 1: not shown heavy 2: AVTLDESGGGLQTPGGALSLVCKASGFDFSSYDMAWVRQAPGKGLEWVAGIKSNGPWTNYGAAVKGRATISRDNGQSTVRLQLNNLRAEDTAIYYCAKPGAGYVGWDAAGTIDSWGHGTEVIVSS light: ALTQPSSVSANLGETVKITCSGGAYSDCGWYQQKSPGSAPVTVIYYNDKRPSDIPSRFSGSTFGSTATLTITGVQAEDEAVYYCGGYDSRTGYVGVFGAGTTLTVLGQPKANPTVTLFPPSSEELQANKATLVCLISDFYPGAVTVAWKADGSPVKAGVETTKPSKQSNNKYAASSYLSLTPEQWKSHRSYSCQVTHEGSTVEKTVAPTECS	1.82 nM	236 nM	108 nM	no binding	no binding (tested: 200 nM)	15%	–	–	–	–	–
HC16/ICI2 KiH variant: HCP-LCE on one side and CD16 binder HC16 on the other, paired with the HCP-LCE light chain (bispecific antibody) VH 1: AVTLDESGGGLQTPGGALSLVCKASGFDFSSYDMAWVRQAPGKGLEWVAGIKSNGPWTNYGAAVKGRATISRDNGQSTVRLQLNNLRAEDTAIYYCAKPGAGYVGWDAAGTIDSWGHGTEVIVSS VH 2: AVTLDESGGGLQTPGGTLSLVCRASGFSFSSSDMFWVRQAPGKGLEYVAQISKDGSGKYYGAAVKGRATISRDNGQSTVRLQLNNLRAEDTGIYFCAKSGRGYVTAGRIDTWGHGTEVIVSS light: ALTQPSSVSANLGETVKITCSGGAYSDCGWYQQKSPGSAPVTVIYYNDKRPSDIPSRFSGSTFGSTATLTITGVQAEDEAVYYCGGYDSRTGYVGVFGAGTTLTVLGQPKANPTVTLFPPSSEELQANKATLVCLISDFYPGAVTVAWKADGSPVKAGVETTKPSKQSNNKYAASSYLSLTPEQWKSHRSYSCQVTHEGSTVEKTVAPTECS	–	–	–	–	–	–	320 nM	21.9 nM	–	–	57.7 nM
(αCD3ε)K(αIL-6R)+H(αIL-6R) TriTECM (bispecific antibody, Fabs from HCP-LCE; effector-silenced IgG1 LALA; also called scFv(VH)-IgG1(H)-scFv2) heavy 1: not shown heavy 2: AVTLDESGGGLQTPGGALSLVCKASGFDFSSYDMAWVRQAPGKGLEWVAGIKSNGPWTNYGAAVKGRATISRDNGQSTVRLQLNNLRAEDTAIYYCAKPGAGYVGWDAAGTIDSWGHGTEVIVSSASTKGPSVFPLAPSSKSTSGGTAALGCLVKDYFPEPVTVSWNSGALTSGVHTFPAVLQSSGLYSLSSVVTVPSSSLGTQTYICNVNHKPSNTKVDKRVEPKSCDKTHTCPPCPAPEAAGGPSVFLFPPKPKDTLMISRTPEVTCVVVDVSHEDPEVKFNWYVDGVEVHNAKTKPREEQYNSTYRVVSVLTVLHQDWLNGKEYKCKVSNKALPAPIEKTISKAKGQPREPQVYTLPPSREEMTKNQVSLSCAVKGFYPSDIAVEWESNGQPENNYKTTPPVLDSDGSFFLVSKLTVDKSRWQQGNVFSCSVMHEALHNRFTQKSLSLSPGGSHHHHHHGGGGSGGGGSGGGGSSEVQLVESGGGLVQPGRSLRLSCAASRFTFDDYAMHWVRQAPGKGLEWVSGISWNSGRIGYADSVKGRFTISRDNAENSLFLQMNGLRAEDTALYYCAKGRDSFDIWGQGTMVTVSSAGGGGSGGGGSGGGGSSDIQMTQSPSSVSASVGDRVTITCRASQGISSWLAWYQQKPGKAPKLLIYGASSLESGVPSRFSGSGSGTDFTLTISSLQPEDFASYYCQQANSFPYTFGQGTKLEIKR light: ALTQPSSVSANLGETVKITCSGGAYSDCGWYQQKSPGSAPVTVIYYNDKRPSDIPSRFSGSTFGSTATLTITGVQAEDEAVYYCGGYDSRTGYVGVFGAGTTLTVLGQPKANPTVTLFPPSSEELQANKATLVCLISDFYPGAVTVAWKADGSPVKAGVETTKPSKQSNNKYAASSYLSLTPEQWKSHRSYSCQVTHEGSTVEKTVAPTECS	12.3 nM	271 nM	130 nM	–	–	16.5%	–	–	–	2.71 nM	–
